# From PMC3610906
# Target: microtubules in LLCPK cells (pig (endogenous in LLCPK)) (UniProt P02550)
# Assay: FRAP; living LLCPK cells expressing GFP-tau, 37°C; fluorescence recovery integrated along line scans on single photobleached microtubules; half time from a first-order rate constant (t1/2 = ln2/k)
# Sequence of UniProt P02550 (P02550 whole entry, chain 1 of 2): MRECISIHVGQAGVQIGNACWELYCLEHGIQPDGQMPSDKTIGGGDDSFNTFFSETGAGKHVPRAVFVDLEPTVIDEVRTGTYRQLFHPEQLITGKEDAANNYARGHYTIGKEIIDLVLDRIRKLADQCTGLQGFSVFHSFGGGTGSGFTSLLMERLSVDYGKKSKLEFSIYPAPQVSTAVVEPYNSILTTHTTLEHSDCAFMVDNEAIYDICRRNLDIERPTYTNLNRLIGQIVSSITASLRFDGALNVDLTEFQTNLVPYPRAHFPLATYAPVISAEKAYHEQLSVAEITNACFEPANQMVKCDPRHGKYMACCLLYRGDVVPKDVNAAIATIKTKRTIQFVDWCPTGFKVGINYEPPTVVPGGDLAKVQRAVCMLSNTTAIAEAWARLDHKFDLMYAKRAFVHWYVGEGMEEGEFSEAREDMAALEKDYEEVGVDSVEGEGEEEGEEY
# Sequence of UniProt P02550 (Q767L7 whole entry, chain 2 of 2, further chain): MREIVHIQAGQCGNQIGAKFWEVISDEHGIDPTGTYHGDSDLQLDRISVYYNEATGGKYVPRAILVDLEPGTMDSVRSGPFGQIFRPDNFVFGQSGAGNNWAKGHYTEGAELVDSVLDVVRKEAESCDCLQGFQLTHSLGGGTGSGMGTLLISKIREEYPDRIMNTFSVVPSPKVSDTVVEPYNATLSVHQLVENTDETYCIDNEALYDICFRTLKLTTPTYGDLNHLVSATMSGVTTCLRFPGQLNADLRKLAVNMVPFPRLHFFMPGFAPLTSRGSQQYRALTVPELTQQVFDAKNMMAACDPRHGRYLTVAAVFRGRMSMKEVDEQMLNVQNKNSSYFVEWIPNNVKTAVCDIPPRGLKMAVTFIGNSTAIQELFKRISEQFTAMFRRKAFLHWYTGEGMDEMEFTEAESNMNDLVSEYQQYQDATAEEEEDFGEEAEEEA
substance,measurement,value
GFP-tau (isoform with three microtubule-binding repeats) (natural protein),half time of fluorescence recovery on microtubules,6.8 s
